The chains are these.
B1: GpH7-B3 variant S267_01G/GpL16-k0 (antibody, human IgG1, kappa)
heavy: not shown
light: DIVMTQSPLSLPVTPGEPASISCQASESLVHSNRNTYLHWYLQKPGQSPQLLIYKVSNRFSGVPDRFSGSGSGTDFTLKISRVEAEDVGVYYCSQNTHVPPTFGQGTKVEIERTVAAPSVFIFPPSDEQLKSGTASVVCLLNNFYPREAKVQWKVDNALQSGNSQESVTEQDSKDSTYSLSSTLTLSKADYEKHKVYACEVTHQGLSSPVTKSFNRGEC
notes: mutation in both H chains; also called Ho Ab S267_01G; S267G
B2: GpH7-B3 variant S337_12R/GpL16-k0 (antibody, human IgG1, kappa)
heavy: not shown
light: B1 light
notes: mutation in both H chains; also called Ho Ab S337_12R; S337R
B3: GpH7-B3 variant S324_12R/GpL16-k0 (antibody, human IgG1, kappa)
heavy: not shown
light: B1 light
notes: mutation in both H chains; also called Ho Ab S324_12R; S324R
B4: GpH7-B3 variant S324_02A/GpL16-k0 (antibody, human IgG1, kappa)
heavy: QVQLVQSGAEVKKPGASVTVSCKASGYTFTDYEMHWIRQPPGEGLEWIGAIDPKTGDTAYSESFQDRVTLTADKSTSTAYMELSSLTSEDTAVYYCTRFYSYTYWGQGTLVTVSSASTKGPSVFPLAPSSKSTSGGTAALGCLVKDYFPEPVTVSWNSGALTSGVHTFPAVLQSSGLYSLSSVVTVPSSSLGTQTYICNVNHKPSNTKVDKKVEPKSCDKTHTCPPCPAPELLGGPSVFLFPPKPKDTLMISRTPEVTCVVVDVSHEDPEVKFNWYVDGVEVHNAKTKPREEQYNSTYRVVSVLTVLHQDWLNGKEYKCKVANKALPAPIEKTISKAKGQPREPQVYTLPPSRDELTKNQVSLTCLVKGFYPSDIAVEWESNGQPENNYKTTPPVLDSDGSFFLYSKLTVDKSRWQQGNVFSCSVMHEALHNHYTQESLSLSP
light: B1 light
notes: mutation in both H chains; also called Ho Ab S324_02A; S324A
B5: GpH7-B3 variant S298_16H/GpL16-k0 (antibody, human IgG1, kappa)
heavy: not shown
light: B1 light
notes: mutation in both H chains; also called Ho Ab S298_16H; S298H
B6: GpH7-B3 variant S267_09D/GpL16-k0 (antibody, human IgG1, kappa)
heavy: not shown
light: B1 light
notes: mutation in both H chains; also called Ho Ab S267_09D; S267D
B7: GpH7-B3 variant S337_10E/GpL16-k0 (antibody, human IgG1, kappa)
heavy: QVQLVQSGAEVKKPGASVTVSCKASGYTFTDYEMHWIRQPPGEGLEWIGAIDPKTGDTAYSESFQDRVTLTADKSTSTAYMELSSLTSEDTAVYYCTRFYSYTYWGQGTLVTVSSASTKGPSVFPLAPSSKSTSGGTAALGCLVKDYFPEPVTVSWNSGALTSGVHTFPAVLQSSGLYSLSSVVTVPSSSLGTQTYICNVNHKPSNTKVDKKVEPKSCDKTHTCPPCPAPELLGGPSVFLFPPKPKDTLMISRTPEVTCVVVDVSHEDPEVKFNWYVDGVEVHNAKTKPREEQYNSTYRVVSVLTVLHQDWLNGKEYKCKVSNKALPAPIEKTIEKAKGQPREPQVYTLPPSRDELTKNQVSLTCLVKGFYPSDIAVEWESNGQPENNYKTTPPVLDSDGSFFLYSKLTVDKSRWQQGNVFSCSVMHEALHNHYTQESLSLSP
light: B1 light
notes: mutation in both H chains; also called Ho Ab S337_10E; S337E
B8: GpH7-B3 variant S337_19Q/GpL16-k0 (antibody, human IgG1, kappa)
heavy: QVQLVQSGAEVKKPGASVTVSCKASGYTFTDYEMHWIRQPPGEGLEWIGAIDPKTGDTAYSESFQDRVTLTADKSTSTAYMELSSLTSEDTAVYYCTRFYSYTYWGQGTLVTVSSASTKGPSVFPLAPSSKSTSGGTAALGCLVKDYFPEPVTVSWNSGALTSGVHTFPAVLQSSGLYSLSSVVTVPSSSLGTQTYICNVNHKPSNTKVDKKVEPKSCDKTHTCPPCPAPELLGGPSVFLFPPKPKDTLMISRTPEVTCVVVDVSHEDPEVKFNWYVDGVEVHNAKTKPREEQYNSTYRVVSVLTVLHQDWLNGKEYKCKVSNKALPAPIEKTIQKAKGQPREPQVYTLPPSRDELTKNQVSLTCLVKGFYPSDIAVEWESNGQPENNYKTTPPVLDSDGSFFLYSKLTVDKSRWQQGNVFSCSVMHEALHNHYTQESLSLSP
light: B1 light
notes: mutation in both H chains; also called Ho Ab S337_19Q; S337Q
B9: GpH7-B3 variant S298_14T/GpL16-k0 (antibody, human IgG1, kappa)
heavy: not shown
light: B1 light
notes: mutation in both H chains; also called Ho Ab S298_14T; S298T
B10: GpH7-B3 variant T335_10E/GpL16-k0 (antibody, human IgG1, kappa)
heavy: not shown
light: B1 light
notes: mutation in both H chains; also called Ho Ab T335_10E; T335E
B11: GpH7-B3 variant S298_19Q/GpL16-k0 (antibody, human IgG1, kappa)
heavy: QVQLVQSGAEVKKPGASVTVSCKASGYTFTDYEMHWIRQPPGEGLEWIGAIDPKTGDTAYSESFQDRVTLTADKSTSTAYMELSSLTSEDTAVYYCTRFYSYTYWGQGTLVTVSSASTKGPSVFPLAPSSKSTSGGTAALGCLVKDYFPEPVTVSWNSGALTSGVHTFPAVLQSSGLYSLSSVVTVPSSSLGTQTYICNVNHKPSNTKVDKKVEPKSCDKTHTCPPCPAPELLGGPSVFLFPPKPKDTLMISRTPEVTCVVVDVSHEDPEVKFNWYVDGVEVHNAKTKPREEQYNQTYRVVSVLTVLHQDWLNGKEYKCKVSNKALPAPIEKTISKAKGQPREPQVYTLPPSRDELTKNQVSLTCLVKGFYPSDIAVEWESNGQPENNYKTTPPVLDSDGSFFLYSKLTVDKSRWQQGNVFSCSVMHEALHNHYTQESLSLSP
light: B1 light
notes: mutation in both H chains; also called Ho Ab S298_19Q; S298Q
B12: GpH7-B3 variant T335_07I/GpL16-k0 (antibody, human IgG1, kappa)
heavy: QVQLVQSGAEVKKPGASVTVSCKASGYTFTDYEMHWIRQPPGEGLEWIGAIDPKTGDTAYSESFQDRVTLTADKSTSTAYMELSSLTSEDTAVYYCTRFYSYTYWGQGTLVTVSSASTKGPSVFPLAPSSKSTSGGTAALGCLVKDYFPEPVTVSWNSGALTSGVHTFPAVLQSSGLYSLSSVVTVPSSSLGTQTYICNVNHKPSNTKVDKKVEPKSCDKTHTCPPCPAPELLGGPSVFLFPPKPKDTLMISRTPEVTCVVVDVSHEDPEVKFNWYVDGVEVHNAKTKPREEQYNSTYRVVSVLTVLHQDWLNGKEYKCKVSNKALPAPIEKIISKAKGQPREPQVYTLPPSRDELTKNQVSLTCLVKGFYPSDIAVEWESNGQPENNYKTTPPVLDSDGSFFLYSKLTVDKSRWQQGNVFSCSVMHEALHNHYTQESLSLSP
light: B1 light
notes: mutation in both H chains; also called Ho Ab T335_07I; T335I
B13: GpH7-B3 variant S337_02A/GpL16-k0 (antibody, human IgG1, kappa)
heavy: not shown
light: B1 light
notes: mutation in both H chains; also called Ho Ab S337_02A; S337A
B14: GpH7-B3 variant S337_03V/GpL16-k0 (antibody, human IgG1, kappa)
heavy: not shown
light: B1 light
notes: mutation in both H chains; also called Ho Ab S337_03V; S337V
B15: GpH7-B3 variant S324_18N/GpL16-k0 (antibody, human IgG1, kappa)
heavy: not shown
light: B1 light
notes: mutation in both H chains; also called Ho Ab S324_18N; S324N
B16: GpH7-B3 variant T335_06M/GpL16-k0 (antibody, human IgG1, kappa)
heavy: not shown
light: B1 light
notes: mutation in both H chains; also called Ho Ab T335_06M; T335M
B17: GpH7-B3 variant S324_08L/GpL16-k0 (antibody, human IgG1, kappa)
heavy: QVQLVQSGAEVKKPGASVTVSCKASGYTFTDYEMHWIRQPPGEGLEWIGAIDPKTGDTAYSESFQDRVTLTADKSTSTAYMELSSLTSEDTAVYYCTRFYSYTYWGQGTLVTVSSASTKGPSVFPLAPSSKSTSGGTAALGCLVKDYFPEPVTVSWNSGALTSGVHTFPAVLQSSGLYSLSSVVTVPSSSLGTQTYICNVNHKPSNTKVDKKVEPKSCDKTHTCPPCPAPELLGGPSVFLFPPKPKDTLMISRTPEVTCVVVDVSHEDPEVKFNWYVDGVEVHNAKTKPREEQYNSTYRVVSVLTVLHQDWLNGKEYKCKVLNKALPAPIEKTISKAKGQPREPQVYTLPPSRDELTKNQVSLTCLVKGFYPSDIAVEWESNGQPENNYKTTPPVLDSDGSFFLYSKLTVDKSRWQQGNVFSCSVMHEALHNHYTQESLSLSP
light: B1 light
notes: mutation in both H chains; also called Ho Ab S324_08L; S324L
B18: GpH7-B3 variant S324_14T/GpL16-k0 (antibody, human IgG1, kappa)
heavy: not shown
light: B1 light
notes: mutation in both H chains; also called Ho Ab S324_14T; S324T
B19: GpH7-B3 variant V266_19Q/GpL16-k0 (antibody, human IgG1, kappa)
heavy: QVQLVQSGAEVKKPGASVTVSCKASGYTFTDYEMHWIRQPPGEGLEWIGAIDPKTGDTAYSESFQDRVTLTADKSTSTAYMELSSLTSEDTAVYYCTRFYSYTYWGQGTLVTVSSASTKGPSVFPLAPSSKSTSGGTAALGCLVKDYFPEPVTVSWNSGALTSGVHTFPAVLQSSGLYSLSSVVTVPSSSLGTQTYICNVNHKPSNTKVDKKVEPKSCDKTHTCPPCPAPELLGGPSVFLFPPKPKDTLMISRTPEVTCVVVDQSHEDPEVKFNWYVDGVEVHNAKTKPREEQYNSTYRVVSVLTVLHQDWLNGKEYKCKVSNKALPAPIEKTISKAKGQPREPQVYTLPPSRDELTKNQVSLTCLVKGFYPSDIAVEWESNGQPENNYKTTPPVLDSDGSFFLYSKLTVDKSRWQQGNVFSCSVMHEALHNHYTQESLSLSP
light: B1 light
notes: mutation in both H chains; also called Ho Ab V266_19Q; V266Q
B20: GpH7-B3 variant T335_09D/GpL16-k0 (antibody, human IgG1, kappa)
heavy: not shown
light: B1 light
notes: mutation in both H chains; also called Ho Ab T335_09D; T335D
B21: GpH7-B3 variant S298_01G/GpL16-k0 (antibody, human IgG1, kappa)
heavy: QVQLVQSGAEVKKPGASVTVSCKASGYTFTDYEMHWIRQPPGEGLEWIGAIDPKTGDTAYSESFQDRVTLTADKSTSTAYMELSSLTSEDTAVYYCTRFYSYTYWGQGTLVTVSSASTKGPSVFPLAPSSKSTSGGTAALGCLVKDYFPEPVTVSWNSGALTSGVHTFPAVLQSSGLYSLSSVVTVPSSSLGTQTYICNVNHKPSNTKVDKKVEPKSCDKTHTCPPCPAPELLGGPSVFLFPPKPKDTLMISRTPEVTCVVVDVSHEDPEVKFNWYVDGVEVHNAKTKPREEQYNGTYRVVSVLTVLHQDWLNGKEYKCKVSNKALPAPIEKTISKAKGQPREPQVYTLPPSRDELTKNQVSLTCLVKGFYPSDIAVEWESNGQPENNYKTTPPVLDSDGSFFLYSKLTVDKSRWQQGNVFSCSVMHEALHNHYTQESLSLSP
light: B1 light
notes: mutation in both H chains; also called Ho Ab S298_01G; S298G
B22: GpH7-B3 variant T335_05P/GpL16-k0 (antibody, human IgG1, kappa)
heavy: not shown
light: B1 light
notes: mutation in both H chains; also called Ho Ab T335_05P; T335P
B23: GpH7-B3 variant S324_15Y/GpL16-k0 (antibody, human IgG1, kappa)
heavy: not shown
light: B1 light
notes: mutation in both H chains; also called Ho Ab S324_15Y; S324Y
B24: GpH7-B3 variant T335_15Y/GpL16-k0 (antibody, human IgG1, kappa)
heavy: not shown
light: B1 light
notes: mutation in both H chains; also called Ho Ab T335_15Y; T335Y
B25: GpH7-B3 variant S337_08L/GpL16-k0 (antibody, human IgG1, kappa)
heavy: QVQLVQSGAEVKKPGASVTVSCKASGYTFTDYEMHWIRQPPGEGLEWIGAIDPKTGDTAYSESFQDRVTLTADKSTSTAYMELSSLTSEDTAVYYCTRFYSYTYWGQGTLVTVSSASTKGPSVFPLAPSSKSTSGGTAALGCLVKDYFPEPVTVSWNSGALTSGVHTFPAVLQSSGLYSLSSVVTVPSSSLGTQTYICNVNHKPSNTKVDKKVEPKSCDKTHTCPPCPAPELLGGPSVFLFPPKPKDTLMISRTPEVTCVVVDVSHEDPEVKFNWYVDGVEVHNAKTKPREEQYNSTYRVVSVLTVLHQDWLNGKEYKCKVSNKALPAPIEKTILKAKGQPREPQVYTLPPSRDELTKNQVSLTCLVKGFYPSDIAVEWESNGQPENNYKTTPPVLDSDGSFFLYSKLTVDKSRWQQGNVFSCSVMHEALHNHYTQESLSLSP
light: B1 light
notes: mutation in both H chains; also called Ho Ab S337_08L; S337L
B26: GpH7-B3 variant S337_09D/GpL16-k0 (antibody, human IgG1, kappa)
heavy: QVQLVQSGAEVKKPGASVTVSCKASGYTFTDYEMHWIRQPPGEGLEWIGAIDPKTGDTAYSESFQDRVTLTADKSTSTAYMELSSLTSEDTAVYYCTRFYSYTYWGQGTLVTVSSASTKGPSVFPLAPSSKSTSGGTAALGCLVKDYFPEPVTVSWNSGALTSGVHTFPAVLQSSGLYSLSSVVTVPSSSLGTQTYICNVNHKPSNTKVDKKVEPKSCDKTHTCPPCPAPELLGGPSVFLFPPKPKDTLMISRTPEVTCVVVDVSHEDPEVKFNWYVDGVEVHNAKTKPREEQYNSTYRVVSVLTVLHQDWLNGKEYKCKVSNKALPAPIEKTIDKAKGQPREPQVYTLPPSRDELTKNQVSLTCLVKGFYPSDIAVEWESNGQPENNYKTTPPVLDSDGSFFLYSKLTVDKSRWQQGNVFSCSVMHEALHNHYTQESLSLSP
light: B1 light
notes: mutation in both H chains; also called Ho Ab S337_09D; S337D
B27: GpH7-B3 variant S324_16H/GpL16-k0 (antibody, human IgG1, kappa)
heavy: not shown
light: B1 light
notes: mutation in both H chains; also called Ho Ab S324_16H; S324H
B28: GpH7-B3 variant S298_10E/GpL16-k0 (antibody, human IgG1, kappa)
heavy: not shown
light: B1 light
notes: mutation in both H chains; also called Ho Ab S298_10E; S298E

The test deals with T1, FcγRIa extracellular domain with C-terminal His tag (human, UniProt P12314 16-292).
T1 construct: extracellular domain; also called FcgRI; CD64; not shown: His tag at the C terminus
T1 sequence (P12314 16-292): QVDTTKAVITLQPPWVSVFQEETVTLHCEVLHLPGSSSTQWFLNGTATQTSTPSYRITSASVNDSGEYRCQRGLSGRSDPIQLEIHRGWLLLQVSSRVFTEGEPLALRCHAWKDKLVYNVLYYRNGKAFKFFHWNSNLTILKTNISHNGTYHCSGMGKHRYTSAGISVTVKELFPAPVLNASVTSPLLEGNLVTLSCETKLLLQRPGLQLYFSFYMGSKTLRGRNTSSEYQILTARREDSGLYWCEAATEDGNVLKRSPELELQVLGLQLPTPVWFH
In words: SPR Biacore, relative FcγRIa binding vs GpH7-B3/GpL16-k0.
On to B1, for which the Ho/Con_1a was 102 % of HoCon Ab (=100). The value for B2 was 105 % of HoCon Ab (=100); that for B3 was 101 % of HoCon Ab (=100). As for B4, the Ho/Con_1a is 103 % of HoCon Ab (=100). The value for B5 was 107 % of HoCon Ab (=100); that for B6 was 106 % of HoCon Ab (=100). As to B7, the Ho/Con_1a is 104 % of HoCon Ab (=100).

As for B8, the Ho/Con_1a is 105 % of HoCon Ab (=100).

Regarding B9, the Ho/Con_1a was 106 % of HoCon Ab (=100). The value for B10 was 108 % of HoCon Ab (=100); that for B11 was 105 % of HoCon Ab (=100); that for B12 was 105 % of HoCon Ab (=100). The value for B13 was 103 % of HoCon Ab (=100). The value for B14 was 105 % of HoCon Ab (=100). Take B15: the Ho/Con_1a was 111 % of HoCon Ab (=100). Turning to B16, the Ho/Con_1a was 106 % of HoCon Ab (=100). The value for B17 was 103 % of HoCon Ab (=100). Take B18: the Ho/Con_1a is 112 % of HoCon Ab (=100).

B19: the Ho/Con_1a was 91.2 % of HoCon Ab (=100).

Take B20: the Ho/Con_1a was 107 % of HoCon Ab (=100). Consider B21, for which the Ho/Con_1a was 103 % of HoCon Ab (=100).

Regarding B22, the Ho/Con_1a was 106 % of HoCon Ab (=100).

In the case of B23, the Ho/Con_1a is 112 % of HoCon Ab (=100). For the molecule B24, the Ho/Con_1a was 106 % of HoCon Ab (=100).

B25: the Ho/Con_1a was 105 % of HoCon Ab (=100).

As for B26, the Ho/Con_1a was 106 % of HoCon Ab (=100). In the case of B27, the Ho/Con_1a is 111 % of HoCon Ab (=100).

In the case of B28, the Ho/Con_1a is 106 % of HoCon Ab (=100).

(Values after US20180155451A1 (published 2018).)
